Reference: the supplement of paper PMC10065799, “High-throughput profiling of sequence recognition by tyrosine kinases and SH2 domains using bacterial peptide display” (eLife, 2023)

How the values were obtained:
[1] = molecular target: Grb2 SH2 (UniProt P62993); assay: SH2 binding enrichment of the phosphorylated peptide, bacterial display (enrichment ratio); higher = better substrate or ligand; peptides without Tyr show the background
[2] = molecular target: SHP2-C SH2; assay: as above
[3] = molecular target: c-Src SH2; assay: as above
[4] = molecular target: FGFR1 (UniProt P11362); assay: phosphorylation enrichment, bacterial display (enrichment ratio); higher = better substrate or ligand; peptides without Tyr show the background
[5] = molecular target: Fyn (UniProt P06241); assay: as above
Chain of Fyn (P06241 whole entry, looked up): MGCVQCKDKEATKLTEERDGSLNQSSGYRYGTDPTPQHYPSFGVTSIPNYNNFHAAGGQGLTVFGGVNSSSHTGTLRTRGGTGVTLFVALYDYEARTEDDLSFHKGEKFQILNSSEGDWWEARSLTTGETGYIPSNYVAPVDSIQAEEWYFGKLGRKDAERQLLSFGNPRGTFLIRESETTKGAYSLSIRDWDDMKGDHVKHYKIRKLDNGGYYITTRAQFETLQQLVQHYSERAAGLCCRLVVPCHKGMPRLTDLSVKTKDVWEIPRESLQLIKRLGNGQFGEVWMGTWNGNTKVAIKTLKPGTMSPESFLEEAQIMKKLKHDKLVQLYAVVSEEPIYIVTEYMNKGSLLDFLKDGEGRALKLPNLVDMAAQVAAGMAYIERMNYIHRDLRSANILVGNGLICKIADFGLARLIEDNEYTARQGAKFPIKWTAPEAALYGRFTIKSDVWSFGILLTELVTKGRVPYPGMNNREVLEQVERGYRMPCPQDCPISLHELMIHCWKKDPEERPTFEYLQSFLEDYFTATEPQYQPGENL

[6] = molecular target: MERTK (UniProt Q12866); assay: as above
Chain of MERTK (Q12866 whole entry, looked up): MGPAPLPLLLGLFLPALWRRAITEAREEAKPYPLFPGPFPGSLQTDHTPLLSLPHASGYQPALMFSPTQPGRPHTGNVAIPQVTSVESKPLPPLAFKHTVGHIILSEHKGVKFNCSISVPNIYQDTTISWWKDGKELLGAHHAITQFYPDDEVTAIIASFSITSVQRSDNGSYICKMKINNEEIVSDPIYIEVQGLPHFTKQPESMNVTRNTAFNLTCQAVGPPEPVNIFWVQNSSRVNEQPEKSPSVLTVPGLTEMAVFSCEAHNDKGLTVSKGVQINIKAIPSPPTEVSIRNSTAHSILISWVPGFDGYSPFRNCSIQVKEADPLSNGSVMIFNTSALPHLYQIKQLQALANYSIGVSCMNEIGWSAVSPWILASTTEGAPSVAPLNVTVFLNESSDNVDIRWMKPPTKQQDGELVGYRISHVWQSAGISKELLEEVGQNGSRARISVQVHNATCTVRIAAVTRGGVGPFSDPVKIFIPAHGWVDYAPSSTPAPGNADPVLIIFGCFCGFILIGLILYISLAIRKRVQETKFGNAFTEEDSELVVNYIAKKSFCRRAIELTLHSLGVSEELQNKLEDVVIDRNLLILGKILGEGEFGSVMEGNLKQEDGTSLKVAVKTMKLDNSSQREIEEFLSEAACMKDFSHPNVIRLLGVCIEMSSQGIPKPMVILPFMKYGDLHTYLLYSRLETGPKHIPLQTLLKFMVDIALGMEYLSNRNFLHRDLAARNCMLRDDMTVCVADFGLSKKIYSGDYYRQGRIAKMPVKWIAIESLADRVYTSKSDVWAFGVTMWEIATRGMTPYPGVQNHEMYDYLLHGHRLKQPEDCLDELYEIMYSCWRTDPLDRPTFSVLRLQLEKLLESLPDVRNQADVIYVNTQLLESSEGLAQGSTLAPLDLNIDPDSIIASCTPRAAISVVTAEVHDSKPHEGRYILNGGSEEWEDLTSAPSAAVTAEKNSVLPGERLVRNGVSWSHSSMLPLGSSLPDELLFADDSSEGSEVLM

[7] = molecular target: EPHB2 (UniProt P29323); assay: as above
Chain of EPHB2 (P29323 whole entry, looked up): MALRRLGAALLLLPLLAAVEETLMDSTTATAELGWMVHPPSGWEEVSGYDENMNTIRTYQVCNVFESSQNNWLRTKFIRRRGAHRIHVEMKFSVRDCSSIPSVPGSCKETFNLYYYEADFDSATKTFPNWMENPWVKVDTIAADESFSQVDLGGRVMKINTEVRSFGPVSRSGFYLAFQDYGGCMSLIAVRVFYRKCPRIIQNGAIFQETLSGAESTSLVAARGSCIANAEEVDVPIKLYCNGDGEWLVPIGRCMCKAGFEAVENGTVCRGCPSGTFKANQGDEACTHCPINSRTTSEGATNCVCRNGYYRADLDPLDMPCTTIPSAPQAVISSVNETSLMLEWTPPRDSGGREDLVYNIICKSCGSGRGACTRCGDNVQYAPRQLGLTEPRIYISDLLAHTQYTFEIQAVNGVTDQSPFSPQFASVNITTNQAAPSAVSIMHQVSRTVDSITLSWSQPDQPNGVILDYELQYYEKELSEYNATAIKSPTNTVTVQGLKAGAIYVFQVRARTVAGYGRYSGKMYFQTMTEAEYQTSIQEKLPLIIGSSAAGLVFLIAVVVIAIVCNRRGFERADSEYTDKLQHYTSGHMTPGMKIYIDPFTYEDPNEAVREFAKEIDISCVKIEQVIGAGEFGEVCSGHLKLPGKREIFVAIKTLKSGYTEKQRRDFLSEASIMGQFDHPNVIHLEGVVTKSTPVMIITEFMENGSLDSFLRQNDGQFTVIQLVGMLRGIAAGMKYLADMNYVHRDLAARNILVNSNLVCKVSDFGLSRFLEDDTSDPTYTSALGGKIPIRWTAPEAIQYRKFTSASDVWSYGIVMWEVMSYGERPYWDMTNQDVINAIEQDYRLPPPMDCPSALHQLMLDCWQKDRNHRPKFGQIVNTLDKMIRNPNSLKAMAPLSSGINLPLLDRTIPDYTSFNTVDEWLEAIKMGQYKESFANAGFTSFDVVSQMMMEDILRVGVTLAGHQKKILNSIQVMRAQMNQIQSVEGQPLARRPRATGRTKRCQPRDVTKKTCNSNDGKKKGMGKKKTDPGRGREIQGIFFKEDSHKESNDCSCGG

[8] = molecular target: FGFR3 (UniProt P22607); assay: as above
[9] = molecular target: EPHB1 (UniProt P54762); assay: as above
[10] = molecular target: Hck (UniProt P08631); assay: as above
Chain of Hck (P08631 whole entry, looked up): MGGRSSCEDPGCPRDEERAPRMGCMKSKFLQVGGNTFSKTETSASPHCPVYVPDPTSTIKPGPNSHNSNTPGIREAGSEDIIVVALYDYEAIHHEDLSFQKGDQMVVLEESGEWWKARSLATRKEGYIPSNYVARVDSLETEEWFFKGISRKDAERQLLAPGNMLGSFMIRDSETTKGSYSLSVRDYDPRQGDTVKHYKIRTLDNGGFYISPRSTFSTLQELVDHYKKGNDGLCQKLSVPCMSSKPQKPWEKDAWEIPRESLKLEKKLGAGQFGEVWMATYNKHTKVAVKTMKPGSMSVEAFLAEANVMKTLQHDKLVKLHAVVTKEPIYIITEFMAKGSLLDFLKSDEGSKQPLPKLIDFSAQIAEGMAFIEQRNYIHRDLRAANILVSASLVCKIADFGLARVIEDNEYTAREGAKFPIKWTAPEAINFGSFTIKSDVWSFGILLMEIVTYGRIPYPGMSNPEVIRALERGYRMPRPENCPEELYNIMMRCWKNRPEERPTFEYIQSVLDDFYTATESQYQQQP

[11] = tested on: Fer (mouse); assay: as above
[12] = tested on: AncSZ; assay: as above
[13] = tested on: c-Abl (mouse); assay: as above
[14] = molecular target: Jak2 (UniProt O60674); assay: as above
Chain of Jak2 (O60674 whole entry, looked up): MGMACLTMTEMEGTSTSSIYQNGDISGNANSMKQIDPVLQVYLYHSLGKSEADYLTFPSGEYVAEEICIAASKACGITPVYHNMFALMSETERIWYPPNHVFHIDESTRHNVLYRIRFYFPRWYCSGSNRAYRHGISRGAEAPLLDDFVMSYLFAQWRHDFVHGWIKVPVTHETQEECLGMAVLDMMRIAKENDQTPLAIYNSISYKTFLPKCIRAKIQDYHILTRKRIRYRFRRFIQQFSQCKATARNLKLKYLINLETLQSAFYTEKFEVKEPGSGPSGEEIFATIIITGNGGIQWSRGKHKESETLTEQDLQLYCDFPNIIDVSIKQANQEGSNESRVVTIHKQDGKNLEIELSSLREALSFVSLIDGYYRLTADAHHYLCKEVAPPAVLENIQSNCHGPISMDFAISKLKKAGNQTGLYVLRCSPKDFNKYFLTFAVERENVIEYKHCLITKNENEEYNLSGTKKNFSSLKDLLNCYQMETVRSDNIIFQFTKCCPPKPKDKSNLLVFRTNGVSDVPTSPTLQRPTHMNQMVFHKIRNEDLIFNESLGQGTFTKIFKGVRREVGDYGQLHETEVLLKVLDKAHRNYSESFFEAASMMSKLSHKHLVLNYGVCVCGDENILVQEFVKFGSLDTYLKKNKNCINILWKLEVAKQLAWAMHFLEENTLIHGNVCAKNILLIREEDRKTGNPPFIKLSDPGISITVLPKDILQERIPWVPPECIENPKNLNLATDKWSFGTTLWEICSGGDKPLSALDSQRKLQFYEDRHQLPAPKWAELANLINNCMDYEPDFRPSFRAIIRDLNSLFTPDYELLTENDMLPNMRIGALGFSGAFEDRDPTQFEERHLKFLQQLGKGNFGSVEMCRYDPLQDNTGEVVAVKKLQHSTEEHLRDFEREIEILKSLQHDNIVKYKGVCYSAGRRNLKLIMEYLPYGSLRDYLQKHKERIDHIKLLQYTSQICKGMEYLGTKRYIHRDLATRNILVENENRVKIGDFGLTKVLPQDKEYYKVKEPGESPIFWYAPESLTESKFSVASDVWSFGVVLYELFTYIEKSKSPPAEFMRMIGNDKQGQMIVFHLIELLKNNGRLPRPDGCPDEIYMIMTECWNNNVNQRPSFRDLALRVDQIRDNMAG

[15] = tested on: c-Src; assay: as above
[16] = molecular target: Fes (UniProt P07332); assay: as above
Chain of Fes (P07332 whole entry, looked up, the tested form may be a part): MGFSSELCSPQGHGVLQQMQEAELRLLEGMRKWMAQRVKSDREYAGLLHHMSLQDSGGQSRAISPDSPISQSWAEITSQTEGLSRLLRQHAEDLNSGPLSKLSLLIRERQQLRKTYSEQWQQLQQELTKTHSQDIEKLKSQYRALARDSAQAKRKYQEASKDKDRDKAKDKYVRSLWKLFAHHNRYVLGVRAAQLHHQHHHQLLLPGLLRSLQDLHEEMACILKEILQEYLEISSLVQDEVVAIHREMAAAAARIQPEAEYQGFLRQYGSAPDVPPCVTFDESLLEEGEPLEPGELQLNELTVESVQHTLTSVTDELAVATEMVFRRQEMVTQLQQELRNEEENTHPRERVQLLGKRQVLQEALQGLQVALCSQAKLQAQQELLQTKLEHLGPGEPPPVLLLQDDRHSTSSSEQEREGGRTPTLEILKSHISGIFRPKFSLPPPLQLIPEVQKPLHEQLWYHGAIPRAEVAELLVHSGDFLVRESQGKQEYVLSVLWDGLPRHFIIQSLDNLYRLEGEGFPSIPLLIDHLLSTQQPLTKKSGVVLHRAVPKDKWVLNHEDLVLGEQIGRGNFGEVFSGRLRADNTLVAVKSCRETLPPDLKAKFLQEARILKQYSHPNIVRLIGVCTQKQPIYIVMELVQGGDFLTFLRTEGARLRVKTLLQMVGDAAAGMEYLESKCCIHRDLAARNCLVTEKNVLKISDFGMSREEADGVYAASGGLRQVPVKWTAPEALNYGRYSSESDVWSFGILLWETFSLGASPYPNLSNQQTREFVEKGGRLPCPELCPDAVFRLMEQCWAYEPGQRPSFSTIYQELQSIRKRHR
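For SH2 binding enrichment of the phosphorylated peptide, bacterial display in this document: peptide library displayed on the E. coli surface as eCPX fusions, selected cells deep-sequenced, score is each peptide's frequency after selection divided by its frequency in the input.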
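For phosphorylation enrichment, bacterial display in this document: 11-residue human phosphosite peptides and single-mutation variants displayed on the E. coli surface, counted by deep sequencing, each peptide's frequency after selection divided by its frequency in the unselected input library; frequency after pTyr selection over input frequency; kinase dosed for 20-30% of maximal phosphorylation in three min.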

Row | SH2 binding enrichment [1] | SH2 binding enrichment [2] | SH2 binding enrichment [3] | Sequence | phosphorylation enrichment [4] | phosphorylation enrichment [5] | phosphorylation enrichment [6] | phosphorylation enrichment [7] | phosphorylation enrichment [8] | phosphorylation enrichment [9] | phosphorylation enrichment [10] | phosphorylation enrichment [11] | phosphorylation enrichment [12] | phosphorylation enrichment [13] | phosphorylation enrichment [14] | phosphorylation enrichment [15] | phosphorylation enrichment [16]
1 | 0.878 | 0.661 | 0.432 | SSPMKYQQNVS [EGFEM1P_Y160] | 0.334 | 0.339 | 0.398 | 0.352 | 0.408 | 0.319 | 0.412 | 0.392 | 0.541 | 0.562 | 0.623 | 0.397 | 0.592
2 | 0.835 | 0.471 | 0.65 | QSSALYEDRFL [ASS1_Y83_YF] | 0.781 | 1.48 | 1.24 | 1.86 | 1.01 | 4.13 | 6.48 | 10.1 | 1.19 | 1.08 | 1.23 | 2.02 | 1.53
3 | 0.95 | 0.579 | 0.494 | VRRVGYVSGWG [HP_Y280_G276R] | 0.373 | 0.388 | 0.387 | 0.423 | 0.391 | 0.422 | 0.438 | 0.469 | 0.613 | 0.642 | 0.514 | 0.434 | 0.61
4 | 0.947 | 0.688 | 1.45 | KSPDSYQKILP [ATM_Y1415_L1420P] | 0.517 | 0.427 | 0.414 | 0.321 | 0.429 | 0.387 | 0.36 | 0.531 | 0.544 | 0.431 | 0.519 | 0.389 | 0.584
5 | 1.11 | 1.26 | 1.05 | AKRKNYAPVAM [CFAP47_Y557] | 0.654 | 0.393 | 0.468 | 0.425 | 0.371 | 0.648 | 0.392 | 0.302 | 0.562 | 0.57 | 0.341 | 0.432 | 0.521
6 | 0.818 | 0.695 | 0.419 | TGEKLYQHKEF [ZNF283_Y627_R629H] | 0.418 | 0.39 | 0.397 | 0.402 | 0.528 | 0.45 | 0.495 | 0.436 | 0.62 | 0.665 | 0.599 | 0.417 | 0.679
7 | 1.02 | 0.604 | 0.465 | IENKLYGTSDP [RET_Y1062_M1064T] | 0.527 | 0.59 | 0.526 | 0.544 | 0.559 | 0.563 | 0.553 | 0.549 | 0.858 | 0.818 | 0.817 | 0.509 | 0.869
8 | 1.02 | 0.958 | 0.548 | FKIFRYTLNDN [FN1_Y1975_L1974R_YF] | 0.529 | 0.42 | 0.377 | 0.525 | 0.589 | 0.518 | 0.464 | 0.403 | 1.02 | 0.614 | 1.01 | 0.36 | 1.03
9 | 1.03 | 0.658 | 1.04 | KPYRVYCDMNT [FGB_Y269] | 0.51 | 0.6 | 0.492 | 0.783 | 0.789 | 1.53 | 0.691 | 0.68 | 1.04 | 0.779 | 1.1 | 0.562 | 1.13
10 | 0.628 | 0.713 | 0.475 | DGTESYLTVSS [PLK1_Y462] | 0.454 | 0.453 | 0.387 | 0.467 | 0.59 | 0.447 | 0.443 | 0.487 | 0.89 | 0.687 | 0.845 | 0.465 | 0.954
11 | 1.38 | 2.98 | 1 | MSSLPYMKVIF [SLC4A11_Y853_M856V] | 0.764 | 0.507 | 0.507 | 0.541 | 0.592 | 0.482 | 0.622 | 1.01 | 0.822 | 0.461 | 1.02 | 0.516 | 0.84
12 | 1.66 | 1.99 | 1.33 | LLVVLCKYRCY [PSEN1_Y154_Y154C] | 0.414 | 0.377 | 0.315 | 0.466 | 0.536 | 0.532 | 0.382 | 0.353 | 0.873 | 0.606 | 0.786 | 0.369 | 1.01
13 | 0.803 | 0.544 | 0.486 | FAKTQYPDVFA [CRX_Y63_YF] | 0.454 | 0.364 | 0.38 | 0.45 | 0.525 | 0.469 | 0.483 | 0.388 | 0.876 | 0.478 | 0.724 | 0.351 | 0.74
14 | 0.955 | 0.735 | 0.499 | ENRLDYGSAWA [AR_Y395_P392R] | 0.353 | 0.498 | 0.364 | 0.453 | 0.503 | 0.359 | 0.311 | 0.352 | 0.773 | 0.501 | 0.824 | 0.435 | 1.25
15 | 0.874 | 0.609 | 0.536 | GTVRDYPDFNP [ANXA3_Y15_S19N] | 0.403 | 0.404 | 0.304 | 0.431 | 0.526 | 0.519 | 0.418 | 0.407 | 0.785 | 0.663 | 0.9 | 0.357 | 0.796
16 | 0.581 | 0.6 | 0.478 | PELIDYGKLRK [ACTN1_Y193] | 0.714 | 0.587 | 0.62 | 0.668 | 0.544 | 0.441 | 0.446 | 0.465 | 0.86 | 0.537 | 0.368 | 0.404 | 0.8

Row | Sequence | SH2 binding enrichment [1] | SH2 binding enrichment [2] | SH2 binding enrichment [3] | phosphorylation enrichment [4] | phosphorylation enrichment [5] | phosphorylation enrichment [6] | phosphorylation enrichment [7] | phosphorylation enrichment [8] | phosphorylation enrichment [9] | phosphorylation enrichment [10] | phosphorylation enrichment [11] | phosphorylation enrichment [12] | phosphorylation enrichment [13] | phosphorylation enrichment [14] | phosphorylation enrichment [15] | phosphorylation enrichment [16]
17 | AALKLYHVSDS [VIL1_Y256] | 0.613 | 1.18 | 0.434 | 0.511 | 0.561 | 0.847 | 0.558 | 0.672 | 0.493 | 0.623 | 0.427 | 0.815 | 0.537 | 0.635 | 0.417 | 0.766
